Data published in US20210347908A1 (ELPISCIENCE SUZHOU BIOPHARMA, published 2021).

Tests used:
[1] = target: T1, 6×His tagged human SIRPα v2 ECD recombinant protein (human); test: SPR (Biacore)
Procedure: (§1) Anti-SIRPα chimeric antibodies were characterized for binding affinity against human SIRPα v1, human SIRPα v2 and C57BL/6 mouse SIRPα using Biacore (GE). Briefly the antibodies to be tested were captured to CM5 chip (GE) using Human Antibody Capture Kit (GE). The antigens of 6×His tagged human SIRPα v1, human SIRPα v2 and C57BL/6 mouse SIRPα ECD recombinant proteins were serially diluted for multiple doses and injected at 30 μl/min for 180 s. Buffer flow was maintained for dissociation of 400 s. 3 M MgCl₂ was used for chip regeneration. The association and dissociation curves were fit with 1:1 binding model, and the Ka/Kd/KD values for each antibody were calculated.
(§2) hu035.01, the first version of humanized 035, was characterized by FACS assay using CHOK1-human SIRPα v1-1B4 cells, ELISA assay using Fc tagged human SIRPα v2 ECD recombinant protein and SPR analysis using the antigen of 6×His tagged human SIRPα v2 ECD recombinant protein (refer to methods described in Example 3.4, Example 3.3 and Example 4.3). […] In particular, hu035.01 cannot be detected to bind with C57BL/6 mouse SIRPα ECD in ELISA assay possibly due to reduced binding activity (FIG. 5B).

[2] = target: T2, full length human SIRPα v1 stably expressed on CHOK1 cells (human, UniProt P78324 31-504); test: FACS on CHOK1-human SIRPα v1-1B4 cells
T2 construct: whole, on cells; also called CHOK1-human SIRPα v1-1B4 cells; CHOK1-human SIRPα v1
Procedure: Species cross reactivity of the purified hybridoma antibodies against human, cyno and mouse SIRPα was determined by FACS assay using CHOK1-human SIRPα v1-1B4 cells, CHOK1-cyno SIRPα-2A2 cells, and CHOK1-C57BL/6 mouse SIRPα-2.22 cells, which stably expressing SIRPα protein. Briefly the antibodies were incubated with 2×10⁵ target cells at 4° C. for 1 hour. After washing, fluorescence labeled anti-mouse or anti-human IgG 2nd antibody (Life Technologies) was added and incubated at 4° C. for 1 hour. Geometric median fluorescence intensity was detected and EC₅₀ was calculated. In particular, it is noted, in contrast to the other antibodies tested in the same experiment, 060 cannot bind with cyno SIRPα and 035 has cross reactivity against C57BL/6 mouse SIRPα.
as §2

[3] = target: T1, 6×His tagged human SIRPα v2 ECD …; test: SPR (Biacore), antibody captured, 6×His tagged human SIRPα v2 ECD as analyte
Procedure: as §1, §2

[4] = target: T3, 6×His tagged C57BL/6 mouse SIRPα ECD recombinant protein (mouse (C57BL/6), UniProt P97797 32-373); test: ELISA on coated mouse SIRPα (C57BL/6) ECD, antibody at 10, 1 and 0.1 ug/ml [right panel mSIRPα ECD (C57BL/6]
T3 construct: extracellular domain; bought; also called mSIRPα (C57BL/6); mouse SIRPα (C57BL/6) ECD
T3 sequence: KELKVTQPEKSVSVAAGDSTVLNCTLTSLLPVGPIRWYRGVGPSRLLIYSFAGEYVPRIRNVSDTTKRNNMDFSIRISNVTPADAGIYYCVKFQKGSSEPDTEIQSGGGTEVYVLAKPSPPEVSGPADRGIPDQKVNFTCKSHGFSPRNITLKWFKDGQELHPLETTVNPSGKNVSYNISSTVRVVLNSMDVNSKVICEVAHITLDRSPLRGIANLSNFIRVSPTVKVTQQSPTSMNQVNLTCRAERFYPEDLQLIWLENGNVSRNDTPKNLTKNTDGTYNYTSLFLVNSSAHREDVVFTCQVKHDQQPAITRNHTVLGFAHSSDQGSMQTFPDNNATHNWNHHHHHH

T1 sequence (chain, as listed by the source): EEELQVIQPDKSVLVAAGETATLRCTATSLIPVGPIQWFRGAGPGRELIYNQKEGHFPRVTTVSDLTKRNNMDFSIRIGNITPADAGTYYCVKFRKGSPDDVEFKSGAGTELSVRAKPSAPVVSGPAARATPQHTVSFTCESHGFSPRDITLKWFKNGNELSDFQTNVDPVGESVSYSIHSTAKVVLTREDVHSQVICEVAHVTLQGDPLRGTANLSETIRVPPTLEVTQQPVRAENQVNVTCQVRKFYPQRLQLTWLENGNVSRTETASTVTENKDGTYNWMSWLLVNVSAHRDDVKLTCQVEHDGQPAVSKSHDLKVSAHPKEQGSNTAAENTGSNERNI

Kd [1]: 53.4 nM
EC50 (read off the curve) [2]: ~0.5 µg/mL
koff [3]: 0.00065 s⁻¹
kon [3]: 12200 M⁻¹ s⁻¹
binding result [4]: no binding (tested: 10 ug/ml)
B1: humanized antibody hu035.01 (antibody, V domains shown)
VH: QIQLVQSGSELKKPGASVKVSCKASGYTFTNYAMNWVRQAPGQGLEWMGWINTYTGEPTYAQGFKGRFVFSLDTSVSTAYLQISSLKAEDTAVYYCARTRGYYDFDGGAFDYWGQGTLVTVSS
VL: DIQMTQSPSSLSASVGDRVTITCRASQNVGTHLAWFQQKPGKAPKSLIYSASYRYIGVPSRFSGSGSGTDFTLTISSLQPEDFATYYCQQYNTYPLTFGQGTKLEIK
notes: first humanized version of 035 (CDR graft on VH7-4-1 / VK1-16)
